In patent US20240287150A1 (Harvard, published 2024):

Target: T1, EPO receptor (EPOR) on TF-1 cells (human, UniProt P19235 25-508)
T1 sequence (looked up): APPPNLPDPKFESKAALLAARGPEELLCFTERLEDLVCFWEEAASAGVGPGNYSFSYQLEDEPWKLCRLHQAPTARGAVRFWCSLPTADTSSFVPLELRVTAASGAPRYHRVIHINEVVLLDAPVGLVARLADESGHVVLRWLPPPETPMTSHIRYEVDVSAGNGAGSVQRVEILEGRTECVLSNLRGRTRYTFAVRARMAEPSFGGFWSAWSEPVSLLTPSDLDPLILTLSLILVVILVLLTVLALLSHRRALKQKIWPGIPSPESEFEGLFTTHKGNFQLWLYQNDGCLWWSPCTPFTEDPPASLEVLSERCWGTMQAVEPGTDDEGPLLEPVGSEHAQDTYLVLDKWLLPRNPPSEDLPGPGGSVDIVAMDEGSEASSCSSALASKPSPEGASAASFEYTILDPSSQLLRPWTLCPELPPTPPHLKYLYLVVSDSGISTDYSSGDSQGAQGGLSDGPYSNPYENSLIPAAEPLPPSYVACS
Assay: cell-based or functional assay

EC50 relative to epoetin alfa, TF-1 cell proliferation: 14.2 fold
Substance: Darbepoetin (Aranesp), hyperglycosylated EPO (ligand)
